Paper PMC7354611

Biological target: Bacillus cereus MazF (mRNA interferase BC0266) (Bacillus cereus)
Test: SEC; Superdex 75 10/300 GL column, with reference proteins of the Gel Filtration Calibration Kits (GE Healthcare); His-tagged MazF eluted at almost the same time as carbonic anhydrase (29 kDa)

Substance: Bacillus cereus MazF (mRNA interferase BC0266) (natural protein)
- stoichiometry N: 2
